The values below come from the supplement of paper PMC12042874.

± gives the uncertainty stated by the source.

The nature of this data set: amyloid nucleation score (Sup35N fusion, yeast selection) (log enrichment); library NNK2; higher = more nucleation; inactive = no reads after selection. A digest of the protocol: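 DiMSum was used to calculate nucleation scores as log enrichment of output over input reads, centred on the mode score of non-aggregating sequences. Sequences with fewer than 100 input reads were not scored. Input and output came from Illumina sequencing of plasmid inserts in psi-negative yeast expressing peptides of 20 random codons fused to Sup35N, induced 24 hours with 100 μM copper sulfate and then grown 7 days at 30°C on medium lacking adenine and uracil.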
RKAMRYVVCDRRPMCYRNSW registered an amyloid nucleation score of 0.752 ± 0.43.

Substance AVVDH gave an amyloid nucleation score of 0.336 ± 0.41.

On to CDQYHSQPWMLKTQIRLMTA, for which the amyloid nucleation score worked out at 1.27 ± 0.3.

YCVRVMYNKLRLHMNIVVVC: the amyloid nucleation score came to 0.705 ± 0.58.

LCRNSSVFRCSGK came in with an amyloid nucleation score of 0.311 ± 0.17.

On to CSTTWGDTIAGHEAGLVSLS, for which the amyloid nucleation score is 1.02 ± 0.37.

Take RYRTMSTRHPAYGVGGLLLM: the amyloid nucleation score turned out to be 0.544 ± 0.36.

VYVRFWESSSCYTRGRNGWN came in with an amyloid nucleation score of 3.08 ± 0.086.

As for VIAKDLMHMLPLYM, the amyloid nucleation score was found to be 0.37 ± 0.25.

For LLDYLYDIGRHTKGK, the amyloid nucleation score is -0.337 ± 1.1.

ESDVSRDRMMALRNMYFCHR came in with an amyloid nucleation score of 0.192 ± 0.74.

In turn, FSSFVNREKMFIHFSNVVYF had an amyloid nucleation score of 1.44 ± 0.1.

Take PFSRLNPRDPLWVEMFVCWQ: the amyloid nucleation score is 3.48 ± 0.066.

VDFVIGLLKPTVVKNHGCWS gave an amyloid nucleation score of -0.301 ± 0.65.

For DKSNGVTMVESITSGG, the amyloid nucleation score is -0.303 ± 0.56.

With MVPGDRCPIAKNHFFPKINL, the amyloid nucleation score is -0.335 ± 0.45.

RSGAVQWRQRMGCMPSVCDR displayed an amyloid nucleation score of 1.46 ± 0.26.

MLGRVKTKVACYG came in with an amyloid nucleation score of 0.409 ± 0.64.

Substance TSVNSILRYFRSRAMLKQGS came in with an amyloid nucleation score of 1.11 ± 0.45.

Consider GNTLGRFMVLHT, for which the amyloid nucleation score was -0.199 ± 0.8.

Substance LRFYPW showed an amyloid nucleation score of 1.14 ± 0.36.

CGWTDFMMYTWTEIMQIQLR returned an amyloid nucleation score of -1.03 ± 0.76.

Consider LRVVSES, for which the amyloid nucleation score was -0.599 ± 0.35.

For MLPIRRIMQQFHGKPYNCYT, the amyloid nucleation score entry was “inactive”.

The substance LSPVSWYLRITYNAYSMVGQ had an amyloid nucleation score of 1.91 ± 0.11.

As to GESEVLSRRRQFFGRLWVCM, the amyloid nucleation score entry is “inactive”.

The substance ISTYSMYACFKMSL yielded an amyloid nucleation score of 4.88 ± 0.1.

DIWKTQ gave an amyloid nucleation score of 0.218 ± 0.8.

MYRYSWHDVFCVSKCSEVS: the amyloid nucleation score result was “inactive”.

With NSTDSSFGKARYFLSNSYWV, the amyloid nucleation score result was “inactive”.

In the case of SVLSLFWLFTDFLVVSHDIL, the amyloid nucleation score was -0.784 ± 1.1.

Take CHKSACCKILVDDIALFN: the amyloid nucleation score was -0.419 ± 0.32.

Consider DFLVYCGLLEQLWLLSDAKC, for which the amyloid nucleation score is -0.356 ± 1.1.

In turn, AGEYDLIFYLDFYMGNEVIS had an amyloid nucleation score of 2.29 ± 0.13.

In the case of FYGQMRSKVLCLFH, the amyloid nucleation score is -1.02 ± 0.76.

LLFVLAKGNKTCSTPCIEIH yielded an amyloid nucleation score of -0.628 ± 0.27.

With FGKPGPRFLSSPGFSYP, the amyloid nucleation score was determined as 0.382 ± 0.51.

Substance LRSACCLIRSLNTAVCGWTK returned an amyloid nucleation score of 4.22 ± 0.048.

In the case of DSTVRPMRGGECNAGVAGKE, the amyloid nucleation score was 0.794 ± 0.24.

Substance WSLLV gave an amyloid nucleation score of 0.478 ± 0.8.

With LVGWSGLLTDALEFLLSKDV, the amyloid nucleation score was -0.592 ± 0.76.

As for PWDVGRRR, the amyloid nucleation score worked out at 0.97 ± 0.55.

For NLFNLSCHGLLNERKHLSGV, the amyloid nucleation score is -0.442 ± 0.44.

For the substance FSWVIYYE, the amyloid nucleation score was -1.27 ± 1.1.

IPSRAVVPFFLDLRPHADVS: the amyloid nucleation score turned out to be 0.25 ± 0.46.

Substance YCCTDQGFSLGYRMLWCRDN registered an amyloid nucleation score of -1 ± 0.24.

IPMHPLCGVRRNTELRVVEW displayed an amyloid nucleation score of 1.78 ± 0.25.

Turning to IKCKKKYRSYWNRG, the amyloid nucleation score was -0.27 ± 0.46.

Regarding GCMLSRMNTGLSRLGLFFDS, the amyloid nucleation score was -1.25 ± 0.55.

Substance ASPSHACGLC yielded an amyloid nucleation score of 2.12 ± 0.15.

As to TFGTQELELTD, the amyloid nucleation score entry was “inactive”.

In turn, IVYWSSEWRKPGAHDTLD displayed an amyloid nucleation score of 0.451 ± 0.24.

Regarding YLLTLFGPRMTD, the amyloid nucleation score was -1.45 ± 0.76.

In the case of MEFSAKFIYFS, the amyloid nucleation score came out at 1.48 ± 0.11.

In the case of HSGFADFGRMEMIRDPTGRD, the amyloid nucleation score stood at 1.96 ± 0.15.

The substance SWWYSKELKSRSAILATMMK gave an amyloid nucleation score of -0.151 ± 0.28.

In turn, CNMLRVNHRNLVLTDMCNG returned an amyloid nucleation score of 0.204 ± 0.8.

In turn, NVAGCSWSSQLPRPTP returned an amyloid nucleation score of 1.46 ± 0.61.

Consider YSSFIDNHFAVRR, for which the amyloid nucleation score was -0.448 ± 0.49.

Consider NWNLRHRCAGWYCDRRKVLR, for which the amyloid nucleation score turned out to be 4.28 ± 0.085.

LMTSDAGSLAIVVVNCNFGT: the amyloid nucleation score came out at 7.942 ± 0.023.

In turn, RVDFFRFSVQSESWSVLH displayed an amyloid nucleation score of 0.334 ± 0.35.

LMVTKLSCSCFCLFSVPRSQ came in with an amyloid nucleation score of 0.783 ± 0.74.

With FEKEWYSGLCFARAVARGMR, the amyloid nucleation score amounted to 2.97 ± 0.17.

Substance MFLILMCNCSYVGILRPNST yielded an amyloid nucleation score of 6.672 ± 0.03.

For the substance YSMSLASSRCR, the amyloid nucleation score result is “inactive”.

With MCCFRNSNVGAYRSSSIVNG, the amyloid nucleation score is -0.403 ± 1.

The substance ILGVRYVSCSGSLGNWAQRG yielded an amyloid nucleation score of 4.87 ± 0.098.

On to ALGYSRLTEYGLDRMVQTAC, for which the amyloid nucleation score is 0.908 ± 0.52.

SRDVSLRYCTWCPGVN yielded an amyloid nucleation score of 0.789 ± 0.22.

With GFVYYSVMVFLMLAFPYLRH, the amyloid nucleation score is -1.59 ± 0.64.

In the case of VSRVEYCSGCMSANYLL, the amyloid nucleation score was determined as 7.7 ± 0.08.

Take VSARDHLGKRNRHWINC: the amyloid nucleation score is -0.626 ± 0.55.

The substance ELGVTNLDVDRHIDY had an amyloid nucleation score of -0.038 ± 1.1.

RYRRFVIGVQWQRLSRG yielded an amyloid nucleation score of -0.19 ± 1.1.

On to MFEIIPFPTSISDRGSTIYM, for which the amyloid nucleation score is -0.855 ± 0.55.

As to VLDCRFKCCNFTRDLT, the amyloid nucleation score came out at 7.67 ± 0.043.

TDANESDR had an amyloid nucleation score of 0.905 ± 0.36.

Substance SQVSHLRLDVPVAEI came in with an amyloid nucleation score of 4.04 ± 0.078.

SSFIRGLTSKAG showed an amyloid nucleation score of 1.05 ± 0.57.

Regarding RCCFAARMYYGHTLASAVIR, the amyloid nucleation score worked out at 1.38 ± 0.3.

Substance IDGYIQGFHGIRLEQLGGVE had an amyloid nucleation score of 0.152 ± 0.48.

YDAMFS showed an amyloid nucleation score of 1.09 ± 0.45.

In the case of PKMRFFPIARSSIRERNVWV, the amyloid nucleation score is -1.31 ± 0.34.

The substance RVADVCTQVMRGL displayed an amyloid nucleation score of 1.9 ± 0.33.

With CMWWIHDPGRDRLKELKVAR, the amyloid nucleation score came to 0.452 ± 0.36.

On to ASITIHSFKMRTYTRAITRE, for which the amyloid nucleation score came to 3.92 ± 0.064.

Regarding KDCLTVVMLSLVHLRPCY, the amyloid nucleation score entry is “inactive”.

As to VSSETSGFMIGYLYVDLNGV, the amyloid nucleation score was -0.814 ± 0.4.

Consider NSESVICVLQGGFIRACV, for which the amyloid nucleation score was -0.551 ± 0.45.

SEYVCSCYFSGLLNKLRLVE displayed an amyloid nucleation score of 0.356 ± 0.43.

As for CFVWIIRLYVQSRMLSTSNL, the amyloid nucleation score was -0.181 ± 0.8.

In turn, LRFKNVWWPYGDYECATIIT gave an amyloid nucleation score of -0.468 ± 0.41.

On to SDSGQVVNSLGSKEGIRFFD, for which the amyloid nucleation score was -1.17 ± 0.38.

Regarding GTVFCYLM, the amyloid nucleation score was -1.05 ± 1.

For the substance IRESGVYTNLYSVVRVEEKT, the amyloid nucleation score was found to be 0.012 ± 0.38.

On to RACFHHIIGDCCYASFN, for which the amyloid nucleation score amounted to 8.757 ± 0.05.

Substance QWTHERSEPWHCSDVRSFIE gave an amyloid nucleation score of 5.757 ± 0.044.

As for LSYVFIVECPSSAGMLPRPF, the amyloid nucleation score came out at 4.01 ± 0.13.

VGALCGYAVVSWYSWSLSVL displayed an amyloid nucleation score of 1.83 ± 0.11.

The substance LVTECNRDGTLDG had an amyloid nucleation score of -0.582 ± 0.49.

Substance RNESHVNLLGFMLDRRPDRG registered an amyloid nucleation score of 4.37 ± 0.071.

Take TGDSVGLGLLGSWRNEKVCD: the amyloid nucleation score was found to be 0.088 ± 0.3.

With RYKKAHSSALRCK, the amyloid nucleation score amounted to 0.988 ± 0.74.

As for NNAMWSWSS, the amyloid nucleation score was -0.039 ± 0.41.

The substance MWVWQEPDVWARLCLDGYEK had an amyloid nucleation score of -0.127 ± 0.45.

For the substance KVECEVWVRWVRCDGCAAGK, the amyloid nucleation score amounted to 1.22 ± 0.2.

Substance VLTSFGLW displayed an amyloid nucleation score of 5.206 ± 0.037.

As to FYQGLATILSSSLVPIHRHQ, the amyloid nucleation score entry is “inactive”.

Substance FWALCVASVICYFVRMLSLA gave an amyloid nucleation score of 0.169 ± 0.3.

In turn, LDDPCSHYILGSGHDHVLRR registered an amyloid nucleation score of 0.697 ± 0.81.

With LEPGAFRSIVFRIND, the amyloid nucleation score was found to be 0.961 ± 0.48.

Regarding GGTIYTLL, the amyloid nucleation score is -1.01 ± 0.36.

On to GPFNNRRGQFYSVCIYFLLR, for which the amyloid nucleation score entry is “inactive”.

In the case of YFRISTWRFRTRHLGPCERG, the amyloid nucleation score is 5.708 ± 0.054.

For YINSGV, the amyloid nucleation score result was “inactive”.

Regarding AHIVGMSSSWRLKRYISIES, the amyloid nucleation score came to 0.768 ± 0.43.

In the case of NMIVYC, the amyloid nucleation score entry is “inactive”.

Consider ALINHWNLVTFS, for which the amyloid nucleation score entry was “inactive”.

In turn, VRTNDKYQEVFPSVYYNLGN registered an amyloid nucleation score of -0.944 ± 1.1.

Consider MHSLCRM, for which the amyloid nucleation score is -1.24 ± 0.53.

IFNVRRVLHFIIYVSDIPLD had an amyloid nucleation score of -1.89 ± 0.78.

Turning to NEPETLWFLLVVWEGINISP, the amyloid nucleation score worked out at 0.561 ± 0.64.

On to ACETCPAAEIYLICGTWKSR, for which the amyloid nucleation score came out at 9.36 ± 0.034.

ATFVIY gave an amyloid nucleation score of -0.603 ± 1.

For the substance LTSWKDFRHN, the amyloid nucleation score amounted to 0.4 ± 0.5.

NLCDLDRGNEYAWWRVFMRS showed an amyloid nucleation score of 4.38 ± 0.11.

Consider PSVTRVLSLVILEAPNA, for which the amyloid nucleation score was 2.76 ± 0.14.

In turn, RAPFLKMCL registered an amyloid nucleation score of -1.22 ± 0.75.

The substance WCCMGDMISVKSLVWEPCVT yielded an amyloid nucleation score of 3.17 ± 0.098.

As for PGYGPLTMGGS, the amyloid nucleation score amounted to 1.35 ± 0.24.

Substance WSNSYHRLILWRQCIFGLLV yielded an amyloid nucleation score of 2.76 ± 0.081.

KHSEDSYCFMSGLSGVICCK gave an amyloid nucleation score of 0.932 ± 0.19.

Consider NEDTAGTRRLHPRYGVADWS, for which the amyloid nucleation score was 0.88 ± 0.18.

With PVIIAW, the amyloid nucleation score came to 0.14 ± 1.

The substance CEMLCQTIHSTLTWGIRRLS came in with an amyloid nucleation score of 1.12 ± 0.46.

As for SISALLFIPAHRTIMAG, the amyloid nucleation score was -1.69 ± 1.1.

As to LYYAVQFLKIRTLLPECSLQ, the amyloid nucleation score amounted to 0.16 ± 0.43.

On to HMSTVLLAVAFIALNFPSVE, for which the amyloid nucleation score was -0.373 ± 1.

For CRIGA, the amyloid nucleation score was -0.252 ± 0.28.
